According to PMC10119233:

Columns and labels:
[1] = biological target: N1_(10-14)Fc, Notch1 EGF-like repeats 10–14 fused to human IgG Fc (human) (UniProt P46531); assay: mass photometry; purified Notch decoys; oligomeric state
[2] = biological target: N4_(10-14)Fc, Notch4 EGF-like repeats 10–14 fused to human IgG Fc (human) (UniProt Q99466); assay: as above
[3] = biological target: Recombinant Fc-tagged hDLL4 (human) (UniProt Q9NR61); assay: SPR; Biacore T200, CM5 chip; hDLL4-Fc or hJAG1-Fc on the chip (amine coupling by the results; captured after immobilising human IgG Fc by the methods), up to 20,000 RU; N1_(10-14)Fc or N4_(10-14)Fc as analyte, multi-cycle kinetics; HBS-N (10 mM HEPES, 150 mM NaCl), 0.005% Tween 20, 1 mM CaCl2, 2 mM MgCl2, pH 7.4; 25 °C, 25 μl/min; KD = kd/ka
Recombinant Fc-tagged hDLL4 (human), sequence (Q9NR61 27-529): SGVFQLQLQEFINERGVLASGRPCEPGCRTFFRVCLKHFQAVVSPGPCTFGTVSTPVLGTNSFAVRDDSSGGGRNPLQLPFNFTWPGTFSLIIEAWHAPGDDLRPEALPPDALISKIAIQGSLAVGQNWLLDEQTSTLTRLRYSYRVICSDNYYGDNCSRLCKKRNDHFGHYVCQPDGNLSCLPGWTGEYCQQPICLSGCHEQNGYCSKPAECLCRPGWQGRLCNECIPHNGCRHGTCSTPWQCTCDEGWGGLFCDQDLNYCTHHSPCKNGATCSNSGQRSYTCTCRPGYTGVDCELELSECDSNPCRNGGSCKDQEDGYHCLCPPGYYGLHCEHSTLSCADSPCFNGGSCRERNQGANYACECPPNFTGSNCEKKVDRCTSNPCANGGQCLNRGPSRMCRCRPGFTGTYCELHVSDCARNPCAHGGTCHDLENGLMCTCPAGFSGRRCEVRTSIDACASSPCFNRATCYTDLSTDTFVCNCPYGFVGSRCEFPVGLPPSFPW

stoichiometry N [1] | stoichiometry N [2] | Kd [3] [µM] | Substance
2 | – | – | N1_(10-14)Fc, Notch1 EGF-like repeats 10–14 fused to human IgG Fc (from UniProt P46531 19-2555) (Fc fusion)
– | 2 | 0.963 | N4_(10-14)Fc, Notch4 EGF-like repeats 10–14 fused to human IgG Fc (from UniProt Q99466 24-2003) (Fc fusion)
